Data as given in patent publication US12534531 (MacroGenics, dated 2026).

T1: biotinylated-soluble human LAG-3-Fc fusion protein (human, UniProt P18627 23-450, biotinylated (site not stated))
T1 construct: whole entry named; also called shLAG-3; shLAG-3-Fc; not shown: Fc
T1 sequence: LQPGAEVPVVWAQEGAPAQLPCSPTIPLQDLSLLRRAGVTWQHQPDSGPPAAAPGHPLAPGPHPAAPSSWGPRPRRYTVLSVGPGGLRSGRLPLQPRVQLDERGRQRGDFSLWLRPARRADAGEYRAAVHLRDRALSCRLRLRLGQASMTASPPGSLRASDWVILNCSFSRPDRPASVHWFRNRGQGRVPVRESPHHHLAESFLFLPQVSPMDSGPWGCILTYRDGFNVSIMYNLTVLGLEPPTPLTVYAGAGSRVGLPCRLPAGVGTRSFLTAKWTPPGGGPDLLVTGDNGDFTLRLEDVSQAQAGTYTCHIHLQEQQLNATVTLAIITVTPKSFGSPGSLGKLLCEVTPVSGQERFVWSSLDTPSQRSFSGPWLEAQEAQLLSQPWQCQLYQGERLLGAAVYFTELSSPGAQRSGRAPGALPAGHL

T2: human LAG-3 expressed on NSO cells (human, UniProt P18627 29-525)
T2 sequence: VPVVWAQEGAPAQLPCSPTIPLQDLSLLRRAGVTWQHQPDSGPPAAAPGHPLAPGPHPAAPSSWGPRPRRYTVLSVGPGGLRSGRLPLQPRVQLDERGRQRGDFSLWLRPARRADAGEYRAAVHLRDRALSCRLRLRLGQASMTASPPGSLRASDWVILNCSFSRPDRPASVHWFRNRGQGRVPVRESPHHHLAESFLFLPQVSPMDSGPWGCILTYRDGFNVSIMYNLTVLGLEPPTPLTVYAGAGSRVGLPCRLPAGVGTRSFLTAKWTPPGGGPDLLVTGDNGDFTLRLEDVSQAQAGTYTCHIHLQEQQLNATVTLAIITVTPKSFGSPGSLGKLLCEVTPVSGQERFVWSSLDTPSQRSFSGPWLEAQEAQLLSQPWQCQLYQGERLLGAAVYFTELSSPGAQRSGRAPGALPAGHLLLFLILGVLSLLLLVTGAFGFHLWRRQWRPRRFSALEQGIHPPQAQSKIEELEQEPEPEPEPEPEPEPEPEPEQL

B1: DART D (bispecific antibody, human IgG4 S228P, kappa)
chain 1: EIVLTQSPATLSLSPGERATLSCRASESVDNYGMSFMNWFQQKPGQPPKLLIHAASNQGSGVPSRFSGSGSGTDFTLTISSLEPEDFAVYFCQQSKEVPYTFGGGTKVEIKGGGSGGGGQVQLVQSGAEVKKPGASVKVSCKASGYTFTNYGMNWVRQAPGQGLEWMGWINTYTGESTYADDFEGRFVFSMDTSASTAYLQISSLKAEDTAVYYCARESLYDYYSMDYWGQGTTVTVSSLGGGSGASTKGPSVFPLAPCSRSTSESTAALGCLVKDYFPEPVTVSWNSGALTSGVHTFPAVLQSSGLYSLSSVVTVPSSSLGTKTYTCNVDHKPSNTKVDKRVESKYGPPCPPCPAPEFLGGPSVFLFPPKPKDTLYITREPEVTCVVVDVSQEDPEVQFNWYVDGVEVHNAKTKPREEQFNSTYRVVSVLTVLHQDWLNGKEYKCKVSNKGLPSSIEKTISKAKGQPREPQVYTLPPSQEEMTKNQVSLTCLVKGFYPSDIAVEWESNGQPENNYKTTPPVLDSDGSFFLYSRLTVDKSRWQEGNVFSCSVMHEALHNHYTQKSLSLSLG
chain 2: DIVMTQTPLSLSVTPGQPASISCKSSQSLLHSDAKTYLNWLLQKPGQPPERLIYLVSELDSGVPDRFSGSGSGTDFTLKISRVEAEDVGVYYCWQGTHFPYTFGGGTKVEIKGGGSGGGGQVQLVQSGAEVKKPGASVKVSCKASGYSFTSYWMNWVRQAPGQGLEWIGVIHPSDSETWLDQKFKDRVTITVDKSTSTAYMELSSLRSEDTAVYYCAREHYGTSPFAYWGQGTLVTVSSLGGGSGRTVAAPSVFIFPPSDEQLKSGTASVVCLLNNFYPREAKVQWKVDNALQSGNSQESVTEQDSKDSTYSLSSTLTLSKADYEKHKVYACEVTHQGLSSPVTKSFNRGEC
B2: DART E (bispecific antibody, human IgG4 S228P, kappa)
chain 1: DIVMTQTPLSLSVTPGQPASISCKSSQSLLHSDAKTYLNWLLQKPGQPPERLIYLVSELDSGVPDRFSGSGSGTDFTLKISRVEAEDVGVYYCWQGTHFPYTFGGGTKVEIKGGGSGGGGQVQLVQSGAEVKKPGASVKVSCKASGYSFTSYWMNWVRQAPGQGLEWIGVIHPSDSETWLDQKFKDRVTITVDKSTSTAYMELSSLRSEDTAVYYCAREHYGTSPFAYWGQGTLVTVSSLGGGSGASTKGPSVFPLAPCSRSTSESTAALGCLVKDYFPEPVTVSWNSGALTSGVHTFPAVLQSSGLYSLSSVVTVPSSSLGTKTYTCNVDHKPSNTKVDKRVESKYGPPCPPCPAPEFLGGPSVFLFPPKPKDTLYITREPEVTCVVVDVSQEDPEVQFNWYVDGVEVHNAKTKPREEQFNSTYRVVSVLTVLHQDWLNGKEYKCKVSNKGLPSSIEKTISKAKGQPREPQVYTLPPSQEEMTKNQVSLTCLVKGFYPSDIAVEWESNGQPENNYKTTPPVLDSDGSFFLYSRLTVDKSRWQEGNVFSCSVMHEALHNHYTQKSLSLSLG
chain 2: EIVLTQSPATLSLSPGERATLSCRASESVDNYGMSFMNWFQQKPGQPPKLLIHAASNQGSGVPSRFSGSGSGTDFTLTISSLEPEDFAVYFCQQSKEVPYTFGGGTKVEIKGGGSGGGGQVQLVQSGAEVKKPGASVKVSCKASGYTFTNYGMNWVRQAPGQGLEWMGWINTYTGESTYADDFEGRFVFSMDTSASTAYLQISSLKAEDTAVYYCARESLYDYYSMDYWGQGTTVTVSSLGGGSGRTVAAPSVFIFPPSDEQLKSGTASVVCLLNNFYPREAKVQWKVDNALQSGNSQESVTEQDSKDSTYSLSSTLTLSKADYEKHKVYACEVTHQGLSSPVTKSFNRGEC

Columns and labels:
[1] = biological target: T1, biotinylated-soluble human LAG-3-Fc …; experiment: FACS: inhibition of shLAG-3-Fc binding to MHC II on Daudi cells (column head prints EC50); SM; SD 1.1398
[2] = biological target: T3, human PD-1 expressed on the surface of cells (NSO cells expressing human PD-1; MNFAT-luc2/PD-1 Jurkat cells) (human, UniProt Q15116 21-288); experiment: FACS: inhibition of sPD-L2 binding to PD-1 on NSO cells; SM; SD 0.5869
T3 construct: also called cell surface PD-1; PDCD1 transfected NSO cells expressing PD-1
T3 sequence (Q15116 21-288): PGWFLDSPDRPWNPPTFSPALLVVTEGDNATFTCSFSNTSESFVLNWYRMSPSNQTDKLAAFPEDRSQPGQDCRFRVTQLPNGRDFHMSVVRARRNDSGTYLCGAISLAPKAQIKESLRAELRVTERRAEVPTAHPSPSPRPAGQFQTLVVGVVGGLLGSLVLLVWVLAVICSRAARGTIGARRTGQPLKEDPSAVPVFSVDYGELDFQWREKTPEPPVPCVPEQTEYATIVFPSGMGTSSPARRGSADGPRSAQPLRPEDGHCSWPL

[3] = biological target: T3, human PD-1 expressed on the surface of …; experiment: FACS saturation binding to NSO cells expressing PD-1; SM; SD 0.4140
[4] = biological target: T2, human LAG-3 expressed on NSO cells; experiment: FACS saturation binding to NSO cells expressing LAG-3; SM; SD 0.5326
[5] = biological target: T3, human PD-1 expressed on the surface of …; experiment: FACS: inhibition of sPD-L1 binding to PD-1 on NSO cells; SM; SD 0.1692
[6] = biological target: T2, human LAG-3 expressed on NSO cells; experiment: FACS saturation binding to NSO cells expressing LAG-3; SM; SD 0.8075
[7] = biological target: T3, human PD-1 expressed on the surface of …; experiment: FACS: inhibition of sPD-L1 binding to PD-1 on NSO cells; SM; SD 0.3307
[8] = biological target: T1, biotinylated-soluble human LAG-3-Fc …; experiment: FACS: inhibition of shLAG-3-Fc binding to MHC II on Daudi cells (column head prints EC50); SM; SD 2.9177
[9] = biological target: T3, human PD-1 expressed on the surface of …; experiment: FACS saturation binding to NSO cells expressing PD-1; SM; SD 0.5742
[10] = biological target: T3, human PD-1 expressed on the surface of …; experiment: FACS: inhibition of sPD-L2 binding to PD-1 on NSO cells; SM; SD 0.7736

Binder | IC50 [1] [nM] | IC50 [2] [nM] | EC50 [3] [nM] | EC50 [4] [nM] | IC50 [5] [nM] | EC50 [6] [nM] | IC50 [7] [nM] | IC50 [8] [nM] | EC50 [9] [nM] | IC50 [10] [nM]
B1 | 1180 | 3130 | 2230 | 898 | 1550 | – | – | – | – | –
B2 | – | – | – | – | – | 925 | 1650 | 3270 | 3220 | 2950
